Data from paper PMC3711432, “The Fanconi anemia associated protein FAAP24 uses two substrate specific binding surfaces for DNA recognition”.

Experiments:
[1] = biological target: FAAP24 HhH V162A V162A (UniProt Q9BTP7); experiment: EMSA; conditions: EMSA: 10 mM Tris pH 7.0, 10 mM NaCl (high salt: 50 mM NaHPO4, 400 mM NaCl), 5% glycerol, 1 mM DTT, 20 ug/ml BSA, on ice, gel at 4 C; NMR: 50 mM NaHPO4 pH 6.5 …
[2] = biological target: T1, FAAP24 HhH domain (UniProt Q9BTP7 139-215); experiment: EMSA; 10 mM NaCl; apparent Kd; EMSA: 10 mM Tris pH 7.0, 10 mM NaCl (high salt: 50 mM NaHPO4, 400 mM NaCl), 5% glycerol, 1 mM DTT, 20 ug/ml BSA, on ice, gel at 4 C; NMR: 50 mM NaHPO4 pH 6.5, 100 mM NaCl, 8% D2O, 298 K; conditions: protein: recombinant, tags: N-terminal His, label: radiolabeled
T1 sequence: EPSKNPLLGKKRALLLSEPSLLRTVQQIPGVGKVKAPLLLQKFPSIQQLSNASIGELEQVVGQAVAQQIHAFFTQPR

[3] = biological target: T1, FAAP24 HhH domain; experiment: NMR; 100 mM NaCl; CSPs in hairpin 1; EMSA: 10 mM Tris pH 7.0, 10 mM NaCl (high salt: 50 mM NaHPO4, 400 mM NaCl), 5% glycerol, 1 mM DTT, 20 ug/ml BSA, on ice, gel at 4 C; NMR: 50 mM NaHPO4 pH 6.5, 100 mM NaCl, 8% D2O, 298 K; conditions: protein: recombinant; tags: N-terminal His; blunt
[4] = biological target: T2, FAAP24 full length (UniProt Q9BTP7 1-215); experiment: NMR; CSPs in hairpin 1, C-terminus and ERCC4-like domain; EMSA: 10 mM Tris pH 7.0, 10 mM NaCl (high salt: 50 mM NaHPO4, 400 mM NaCl), 5% glycerol, 1 mM DTT, 20 ug/ml BSA, on ice, gel at 4 C; NMR: 50 mM NaHPO4 pH 6.5, 100 mM NaCl, 8% D2O, 298 K; conditions: protein: recombinant; tags: N-terminal His; blunt
T2 sequence: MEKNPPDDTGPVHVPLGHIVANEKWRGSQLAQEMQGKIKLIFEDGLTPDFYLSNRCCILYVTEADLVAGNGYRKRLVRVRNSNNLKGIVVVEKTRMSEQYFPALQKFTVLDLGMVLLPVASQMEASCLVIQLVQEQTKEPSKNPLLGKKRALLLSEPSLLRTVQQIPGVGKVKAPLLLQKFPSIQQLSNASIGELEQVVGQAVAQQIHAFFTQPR

[5] = biological target: T1, FAAP24 HhH domain; experiment: NMR; 100 mM NaCl; CSPs in N-terminal linker; EMSA: 10 mM Tris pH 7.0, 10 mM NaCl (high salt: 50 mM NaHPO4, 400 mM NaCl), 5% glycerol, 1 mM DTT, 20 ug/ml BSA, on ice, gel at 4 C; NMR: 50 mM NaHPO4 pH 6.5, 100 mM NaCl, 8% D2O, 298 K; conditions: protein: recombinant; tags: N-terminal His; single strand
[6] = biological target: T1, FAAP24 HhH domain; experiment: NMR; 100 mM NaCl; CSPs comparable with splayed arm; EMSA: 10 mM Tris pH 7.0, 10 mM NaCl (high salt: 50 mM NaHPO4, 400 mM NaCl), 5% glycerol, 1 mM DTT, 20 ug/ml BSA, on ice, gel at 4 C; NMR: 50 mM NaHPO4 pH 6.5, 100 mM NaCl, 8% D2O, 298 K; conditions: protein: recombinant; tags: N-terminal His; 5' overhang 20 nt
[7] = biological target: T1, FAAP24 HhH domain; experiment: NMR; 100 mM NaCl; EMSA: 10 mM Tris pH 7.0, 10 mM NaCl (high salt: 50 mM NaHPO4, 400 mM NaCl), 5% glycerol, 1 mM DTT, 20 ug/ml BSA, on ice, gel at 4 C; NMR: 50 mM NaHPO4 pH 6.5, 100 mM NaCl, 8% D2O, 298 K; conditions: protein: recombinant; tags: N-terminal His; fork: 10 bp, two 20 nt arms
[8] = biological target: T3, FAAP24 HhH K171A/K173A (UniProt Q9BTP7 139-215, K171A;K173A); experiment: EMSA; EMSA: 10 mM Tris pH 7.0, 10 mM NaCl (high salt: 50 mM NaHPO4, 400 mM NaCl), 5% glycerol, 1 mM DTT, 20 ug/ml BSA, on ice, gel at 4 C; NMR: 50 mM NaHPO4 pH 6.5, 100 mM NaCl, 8% D2O, 298 K; conditions: protein: recombinant, tags: N-terminal His, (radiolabeled) in EMSA, bubble: 10 bp stem, 10 unpaired nt
T3 sequence: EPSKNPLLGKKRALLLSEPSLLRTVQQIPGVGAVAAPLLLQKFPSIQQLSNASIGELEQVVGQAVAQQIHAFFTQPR

[9] = biological target: T4, FAAP24 HhH K173A (UniProt Q9BTP7 139-215, K173A); experiment: as above; conditions: protein: recombinant, tags: N-terminal His, (radiolabeled) in EMSA, bubble: 10 bp stem, 10 unpaired nt
T4 sequence: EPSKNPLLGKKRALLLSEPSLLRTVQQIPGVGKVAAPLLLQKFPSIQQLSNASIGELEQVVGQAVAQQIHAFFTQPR

[10] = biological target: T5, FAAP24 HhH R161A (UniProt Q9BTP7 139-215, R161A); experiment: as above; conditions: protein: recombinant, tags: N-terminal His, (radiolabeled) in EMSA, bubble: 10 bp stem, 10 unpaired nt
T5 sequence: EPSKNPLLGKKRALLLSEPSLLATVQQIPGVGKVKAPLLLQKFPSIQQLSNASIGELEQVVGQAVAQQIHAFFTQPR

[11] = biological target: T1, FAAP24 HhH domain; experiment: EMSA; 10 mM NaCl; apparent Kd, multiple complexes; EMSA: 10 mM Tris pH 7.0, 10 mM NaCl (high salt: 50 mM NaHPO4, 400 mM NaCl), 5% glycerol, 1 mM DTT, 20 ug/ml BSA, on ice, gel at 4 C; NMR: 50 mM NaHPO4 pH 6.5, 100 mM NaCl, 8% D2O, 298 K; conditions: protein: recombinant, tags: N-terminal His, (radiolabeled) in EMSA, bubble: 10 bp stem, 10 unpaired nt
[12] = biological target: T6, FAAP24 HhH Q205A/Q206A (UniProt Q9BTP7 139-215, Q205A;Q206A); experiment: EMSA; no significant effect on affinity vs wt; EMSA: 10 mM Tris pH 7.0, 10 mM NaCl (high salt: 50 mM NaHPO4, 400 mM NaCl), 5% glycerol, 1 mM DTT, 20 ug/ml BSA, on ice, gel at 4 C; NMR: 50 mM NaHPO4 pH 6.5, 100 mM NaCl, 8% D2O, 298 K; conditions: protein: recombinant, tags: N-terminal His, (radiolabeled) in EMSA, bubble: 10 bp stem, 10 unpaired nt
T6 sequence: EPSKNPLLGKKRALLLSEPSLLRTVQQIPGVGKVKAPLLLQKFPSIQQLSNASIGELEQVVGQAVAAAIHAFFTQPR

Molecule: GGGCGGCGGGTTTTTTTTTTGGCGGGGCGG / CCGCCCCGCCTTTTTTTTTTCCCGCCGCCC [B10 bubble]
- binding signal (fold decrease in affinity vs wt) [1]: 2

B1: ss39 (ssDNA)
DNA: TGCGAATTCATATGCAATATTCAGTGGCTGAGCTACTGG
- Kd ([2]; single strand): 7.8 ± 0.4 µM

B2: ds10 (dsDNA)
DNA 1: GGGCGGCGGG
DNA 2: CCCGCCGCCC
- binding result [3]: binds
- binding result [4]: binds

B3: ss20 (dT20) (ssDNA)
DNA: TTTTTTTTTTTTTTTTTTTT
- binding result [5]: binds

B4: 5' extension (mixed)
DNA: GATTCTAAAGTTAGATAGGCCCCGCCGCCC
?: GGGCGGCGGG
- binding result [6]: binds

B5: splayed arm with 20 nt arms (mixed)
DNA 1: GGGCGGCGGGCGGATAGATTGAAATCTTAG
DNA 2: GATTCTAAAGTTAGATAGGCCCCGCCGCCC
- binding result [7]: binds

B6: B10 bubble (mixed)
DNA 1: GGGCGGCGGGTTTTTTTTTTGGCGGGGCGG
DNA 2: CCGCCCCGCCTTTTTTTTTTCCCGCCGCCC
- binding signal [8]: 4 fold decrease in affinity vs wt
- binding signal [9]: 3 fold decrease in affinity vs wt
- binding signal [10]: 2 fold decrease in affinity vs wt
- Kd [11]: 1.2 ± 0.2 µM
- binding result [12]: binds

B7: ds30 (dsDNA)
DNA 1: GGGCGGCGGGTTTTTTTTTTGGCGGGGCGG
DNA 2: CCGCCCCGCCAAAAAAAAAACCCGCCGCCC
- Kd ([2]; blunt): 9.1 ± 0.9 µM
